Assay results taken from patent US6555105 (GlaxoSmithKline, dated 2003).

Target: T1, recombinant CC-CKR1 receptor (UniProt P32246 1-355, limits assumed)
T1 construct: whole, on cells; The assay used either THP-1 cells or COS cells expressing recombinant CC-CKR1; also called CCKR1 receptors
T1 sequence (looked up): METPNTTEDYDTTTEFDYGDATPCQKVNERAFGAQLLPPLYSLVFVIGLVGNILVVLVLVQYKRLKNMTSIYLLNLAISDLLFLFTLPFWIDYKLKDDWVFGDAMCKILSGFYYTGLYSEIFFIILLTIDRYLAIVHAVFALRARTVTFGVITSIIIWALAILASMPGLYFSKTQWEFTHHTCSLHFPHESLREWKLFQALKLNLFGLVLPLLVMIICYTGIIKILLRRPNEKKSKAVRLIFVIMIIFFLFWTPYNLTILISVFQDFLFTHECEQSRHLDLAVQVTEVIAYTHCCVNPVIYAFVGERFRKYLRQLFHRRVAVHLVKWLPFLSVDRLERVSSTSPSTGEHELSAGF
Test: radioligand competition on cells (THP-1 or COS expressing CC-CKR1), [125I]RANTES tracer, competitor Met-RANTES
Protocol: The competition assay was carried out in 96 well multi-screen filter-phase (Millipore, MADV N6500) which had been pretreated for 2 h with 50 mM HEPES buffer, pH 7.2 containing 1 mM CaCl_2, 5 mM MgCl_2, and 0.5% BSA, (binding buffer). The assay was performed using either THP-1 cells or COS cells expressing the recombinant CC-CKR1 receptor (Neote, K., DiGregorio, Mak, J. Y., Horuk, R., and Schall, T. J., (1993) Molecular cloning, functional expression, and signalling characteristics of a C—C chemokine receptor, *Cell* 72 415–425; Gao, J. L., et al, *J. Exp. Med.* 177 1421–7 (1993)). Each well contained 10^5 cells in a volume of 150 μl of binding buffer containing 0.4 nM [I^125]Mip-1a or 0.4 nM [I^125]RANTES (new England Nuclear, Nex 277) and varying concentrations of competing Met-RANTES. Assays were performed in triplicate. After 90 min incubation at 4° C., the cells were washed 4 times with 200 μl ice cold binding buffer containing 0.5 M NaCl which was removed by aspiration. The filters were dried, 3.5 ml Ultima Gold Scintillation fluid added (Packard) and counted on a Beckman LS5000 counter.

B1: methionylated RANTES (ligand)
chain: MSPYSSDTTPCCFAYIARPLPRAHIKEYFYTSGKCSNPAVVFVTRKNRQVCANPEKKWVREYINSLEMS
notes: also called Met-RANTES
binding result: binds
